Laboratory results from patent US20240279618A1, “RECEPTOR TYROSINE KINASE AGONIST, COMPOSITION FOR CELL CULTURE MEDIUM, AND […] MAINTENANCE COMPOSITION” (SEKISUI CHEMICAL CO., LTD., priority 2021, published 2024).

T1: FGFR1-Fc (Homo sapiens, UniProt P11362)
T1 construct: each consisting of an extracellular region of FGFR1; purchased R & D Systems 661-FR
T1 sequence (P11362 22-285 isoform P11362-14 limits assumed): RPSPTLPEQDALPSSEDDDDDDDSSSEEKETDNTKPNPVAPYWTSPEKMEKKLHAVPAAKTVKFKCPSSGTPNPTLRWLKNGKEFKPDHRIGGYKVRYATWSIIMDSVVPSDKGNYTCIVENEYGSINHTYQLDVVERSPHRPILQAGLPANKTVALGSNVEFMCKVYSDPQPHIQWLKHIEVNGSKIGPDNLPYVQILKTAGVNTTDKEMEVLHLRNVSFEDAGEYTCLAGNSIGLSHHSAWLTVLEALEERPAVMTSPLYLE


Tests used:
[1] = test system: human bone marrow-derived MSC; assay: MSC culture: evaluation of MSC markers by flow cytometry; type: cell-based; settings: MSC fourth passage, 10% or 20% FBS; for CD90-expressing (positive) cells: over the concentrations tested
Protocol: On Day 5 after the initial seeding, D-PBS was added to the cells and removed by suction. 500 μL of TrypLE Express was added to each well and the mixture was left to stand in a CO2 incubator for 5 to 10 minutes. The cells were observed under a microscope, and in a case where it was possible to confirm that the cells had changed in morphology, a medium was added thereto, and the cells were recovered in a PP tube by pipetting, and centrifuged (300× g, 5 minutes). After the centrifugation, the supernatant was removed by suction, an appropriate amount of 1% BSA/PBS was added to the pellet, and the mixture was pipetted to form a suspension.
A part of the suspension was collected and the number of cells was evaluated with a cell counter. Dilution was performed with 1% of BSA/PBS, so that the concentration was 0.6 to 1.0× 10^6 cells/mL. 50 μL of the mixture was dispensed into a 2 mL tube, so that the concentration was 3 to 5×10^4 cells/tube.
Equal amounts of the suspension subjected to the cell counter and the antibody solution adjusted above were mixed, and the mixture was left to stand on ice for 30 minutes or longer with light shielded. 1% of BSA/PBS was added thereto, the mixture was centrifuged (400 to 600×g, 5 minutes), and then the supernatant was removed by suction. Then, 300 to 500 μL of 1% BSA/PBS was added thereto, and the pipetted sample was subjected to flow cytometric analysis using an Attune NxT Flow Cytometer (Thermo Fisher Scientific, Inc.).

[2] = test system: iPS cells (253G1 cells); assay: iPS cell culture: evaluation of preservation stability; type: cell-based, human; settings: stock preserved 3 or 4 weeks at 4° C. versus −80° C.; 20 ng/mL
Protocol: Basic FGF and VHH stocks were collected in a 1.5 mL microtube 3 or 4 weeks before culturing, and preserved in a refrigerator (4° C.). Hereinafter, all operations were the same as those in the cell growth evaluation procedure, except that for basic FGF and VHH, a medium was prepared so that the both were preserved at 20 ng/mL using both refrigeration (4° C.)- and freeze (−80° C.)-preservation conditions.

[3] = test system: human bone marrow-derived MSC; assay: MSC: evaluation of bone differentiation induction (Alizarin Red); type: cell-based; settings: MSC after 3 passages with 20 ng/ml additive, 14 days induction
Protocol: A third passage was performed in a CellBIND® 24-well transparent multi-well plate, and then at a time of reaching 80% to 90% confluence, medium exchange was performed in MesenCult Stem Cell Osteogenic Differentiation Medium (PromoCell, C/N: C-28013) which is a medium for differentiation induction. Furthermore, for the cells as a negative control, D-MEM (10% FBS or 20% FBS) which is a culture medium was used for the medium exchange. The medium exchange was carried out every 2 to 4 days.
After 14 days from seeding, a 4% paraformaldehyde/phosphate buffer solution was added thereto at 500 μL/well, and the cells were left to stand for 2 hours or longer. After the immobilization, purified water was added thereto at 500 μL/well. 500 μL of an Alizarin Red solution (PG Research Co., Ltd., ARD-SET) was added to each well, which was left to stand at room temperature for 30 minutes. The Alizarin Red solution was removed, and washing was performed three times or more with purified water until the washing water became transparent. The water was completely removed, and the coating film was dried, and observed with a microscope to acquire an image. 500 μL of a calcifide nodule dissolution solution (PG Research Co., Ltd., ARD-SET) was added into the well and distributed for 10 minutes to elute the dye. 100 μL of the eluate was transferred to a 96-well plate and the absorbance at 450 nm was measured. […]

[4] = molecular target: T1, FGFR1-Fc; assay: Affinity measurement of VHH (monomer) by surface plasmon resonance (SPR); settings: 1:1 binding model; for ka: 25° C.; for Kd: Biacore T200, 25° C., read-out: equilibrium dissociation constant (KD)
Protocol: Affinity measurement of VHH (monomer) was performed by a surface plasmon resonance (SPR) method.
The binding activity of VHH Clone #1 or VHH Clone #2 immobilized on Series S Sensor Chip CAP (manufactured by Cytiva) with respect to FGFR1-Fc was measured using Biacore (registered trademark) T200 (manufactured by Cytiva). Measurement was performed by CAP Single-cycle Kinetics. The temperature was set to 25° C. As a running buffer, 10 mM HEPES (pH 7.4) (Cytiva) including HBS-EP+(150 mM NaCl, 0.5 mM EDTA, and 0.05% surfactant P20) was used. The measurement order for each run is as follows.
1) Immobilization of biotinylated FGFR1-Fc: The flow rate was set to […], Biotin CAPture Reagent (Cytiva) was added thereto for 300 seconds, then the flow rate was set to […], and an FGFR1-Fc solution diluted with a running buffer was added thereto for 120 seconds to immobilize 140 RU. Here, the “resonance unit (RU)” is a unit used in the above-described Biacore, and a change of an SPR angle of 0.1° is defined as 1,000 RU.
2) Measurement of binding activity: The flow rate was set to 30 μL/mL, and VHH Clone #1 or VHH Clone #2 each diluted to 1.85 nM, 5.56 nM, 16.67 nM, or 50 nM, using a running buffer, was allowed to have an association time set to 120 seconds for binding and a dissociation time set to 600 seconds for interaction.
3) Regeneration of sensor chip surface: The flow rate was set to 10 μL/mL, a solution in which Reaneration stock 1 and Regeneration stock 2 (manufactured by Cytiva) were mixed at the ratio of 3:1 was added thereto for 120 seconds to extract the immobilized VHH. Next, analysis was performed with a 1:1 binding model using Biacore T200 Evaluation (software version 2.0, manufactured by Cytiva), and the binding activity was calculated.

ka [4] [M⁻¹ s⁻¹]	Kd [4] [nM]	Molecule	CD90-expressing cells ([1]; "at ng/mL" (figure not given))	CD90-expressing (positive) cells [1]	growth performance of iPS cells with additive preserved at 4° C. [2]	bone differentiation (Alizarin Red) [3]
–	–	FGF2: fibroblast growth factor (basic), human, recombinant (154aa), positive control; SEQ ID NO: 58 [reference compound]	less than 95%	decreased in inverse proportion to the concentration	growth performance was significantly deteriorated	Differentiation was similarly recognized
8.19e+06	1.74	VHH Clone #1: alpaca-derived VHH single-domain antibody (monomer) binding FGFR1, amino acid sequence SEQ ID NO: 17 (protein, VHH_Clone_#1) VHH: QLQLVESGGGSVQAGGSLRLSCAASRSLSRFNVWTWYRQAPVKQRELVASITKSGDTNYAESVKGRFIISRDDDKNTVYLQMNNLKSEDTGIYYCAGSYYSGSYLYPSPGGFSVWGQGTQVTVSS	–	–	–	–
1.11e+06	1.02	VHH Clone #2: alpaca-derived VHH single-domain antibody (monomer) binding FGFR1, amino acid sequence SEQ ID NO: 18 (protein, VHH_Clone_#2) VHH: QVQLVESGGGLVQAGGSLRLSCAVPGSIFRFNTMGWYRQPPGKQRELVAQMSRGGITKYGDSVKGRFTITRDNAKNTVHLQMNSLKPEDTAVYYCAGSYYSGSYYYPSPQGFSVWGQGTQVTVSP	–	–	–	–
–	–	#1-L4-#1: dimer of VHH #1 with linker L4 (GSEGKSSGSGSESKST), SEQ ID NO: 23 (protein, #1-L4-#1) VHH: QLQLVESGGGSVQAGGSLRLSCAASRSLSRFNVWTWYRQAPVKQRELVASITKSGDTNYAESVKGRFIISRDDDKNTVYLQMNNLKSEDTGIYYCAGSYYSGSYLYPSPGGFSVWGQGTQVTVSSGSEGKSSGSGSESKSTQLQLVESGGGSVQAGGSLRLSCAASRSLSRFNVWTWYRQAPVKQRELVASITKSGDTNYAESVKGRFIISRDDDKNTVYLQMNNLKSEDTGIYYCAGSYYSGSYLYPSPGGFSVWGQGTQVTVSS	–	≥ 97%	exhibited growth performance similar to that of VHH preserved at −80 °C	Differentiation was similarly recognized
